# Source: article PMC6202311
# Tests used:
# [1] = system: RNase E NTD 8x mutant (Escherichia coli); experiment: BLI; details: 5' monophosphate; 3' U-biotin ligated; BLI: 25 mM HEPES pH 7.0, 150 mM NaCl, 100 mM KCl, 10 mM CaCl2, 0.5 mM TCEP; RNA immobilised on streptavidin sensors, protein 0-500 nM; temperature not stated
# [2] = system: RNase E NTD WT (Escherichia coli); experiment: BLI; details: 3' U-biotin ligated, BLI: 25 mM HEPES pH 7.0, 150 mM NaCl, 100 mM KCl, 10 mM CaCl2, 0.5 mM TCEP, RNA immobilised on streptavidin sensors, protein 0-500 nM, temperature not stated
Substance,Kd [1] [nM],Kd ([2]; 5' monophosphate) [nM],Kd ([2]; 5' triphosphate) [nM]
RprA 5'-monophosphate,47,15.6,–
RprA 5'-triphosphate,–,–,8.6
